Measurements from paper PMC3971405, “Molecular basis for the fold organization and sarcomeric targeting of the muscle atrogin MuRF1” (Open Biology, 2014).

Experiments:
[1] = molecular target: the molecule itself; assay: SEC-MALS; SEC-MALLS, Superdex 200 10/300, 20 mM Tris pH 8.0, 100 mM NaCl; injected at 0.7 mg/ml
[2] = molecular target: the molecule itself; assay: SEC-MALS; SEC-MALLS, Superdex 75 10/300 GL, 20 mM Tris pH 8.0, 50 mM NaCl; 1 ml injected at 1.5 mg/ml
[3] = molecular target: the molecule itself; assay: crystal structure; crystals grown at 20°C in 35% MPD, 0.1 M sodium acetate pH 4.5, 20% glycerol, 20 mM NaF; four chains in the asymmetric unit; 2.1 Å

Protein	stoichiometry N [1]	stoichiometry N [2]	stoichiometry N [3]
MuRF1^B2|CC|COS (B2 box, helix H1 and COS-box of MuRF1, residues 114-327, C298S) (domain or fragment) LQKGSHPMCKEHEDEKINIYCLTCEVPTCSMCKVFGIHKACEVAPLQSVFQGQKTELNNCISMLVAGNDRVQTIITQLEDSRRVTKENSHQVKEELSQKFDTLYAILDEKKSELLQRITQEQEKKLSFIEALIQQYQEQLDKSTKLVETAIQSLDEPGGATFLLTAKQLIKSIVEASKGSQLGKTEQGFENMDFFTLDLEHIADALRAIDFGTD	2		
MuRF1^CC (coiled-coil-prone segment of human MuRF1, residues 214-271) (domain or fragment, MuRF1 (E3 ubiquitin ligase, TRIM family), human, UniProtKB Q969Q1, residues 214-271 (D214 to G271); Cloned into pETM-11 (His6-tag and TEV site N-terminal); also called CC^214-271; MuRF1 CC segment; not shown: His6, N-terminal, cleaved) GAMDTLYAILDEKKSELLQRITQEQEKKLSFIEALIQQYQEQLDKSTKLVETAIQSLDEPG		~2	4
